# Reference: article PMC9352680, “A comprehensive thermodynamic model for RNA binding by the Saccharomyces cerevisiae Pumilio protein PUF4”
# Numbering of substitutions follows the chain as printed. Names and notes keep the numbering of the source.
# T1: PUF4 RNA-binding domain (Saccharomyces cerevisiae, UniProt P25339 537-888)
# T1 sequence: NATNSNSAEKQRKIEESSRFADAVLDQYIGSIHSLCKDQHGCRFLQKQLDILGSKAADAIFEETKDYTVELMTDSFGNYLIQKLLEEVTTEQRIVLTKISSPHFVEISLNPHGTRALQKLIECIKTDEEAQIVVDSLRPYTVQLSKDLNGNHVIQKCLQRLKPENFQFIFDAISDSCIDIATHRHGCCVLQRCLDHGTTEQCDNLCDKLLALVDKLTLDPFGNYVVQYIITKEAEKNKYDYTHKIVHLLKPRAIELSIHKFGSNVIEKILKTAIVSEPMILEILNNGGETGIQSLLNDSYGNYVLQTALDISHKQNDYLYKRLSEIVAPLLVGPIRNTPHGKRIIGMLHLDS
# B1: Id_ii_S2_P5E.3_K5.2_C5.2_[C-2G]_[T-1C]_H5.2_A5.1_F5.1_T5.2_[T11A]_[A12C] (ssRNA)
# RNA: UUUGAUUAAUAUGAUAUCGUUCUUUCUGCUAUAUUAUUAACUUCUUUCUCGAUAUCAUAUUAAUCUUU
# B2: Id_ii_S2_P5E.3_K5.2_C5.2_[C-2T]_[T-1C]_H5.2_A5.1_F5.1_T5.2_[T11A]_[A12T] (ssRNA)
# RNA: B1 RNA with G28U, C41U
# B3: Id_ii_S2_P5E.3_K5.2_C5.2_[C-2A]_[T-1C]_H5.2_A5.1_F5.1_T5.2_[A12T] (ssRNA)
# RNA: B1 RNA with G28A, A40U, C41U
# B4: Id_ii_S2_P5E.3_K5.2_C5.2_[C-2T]_[T-1A]_H5.2_A5.1_F5.1_T5.2_[A12C] (ssRNA)
# RNA: B1 RNA with G28U, C29A, A40U
# B5: Id_ii_S2_P5E.3_K5.2_C5.2_[C-2T]_[T-1C]_H5.2_A5.1_F5.1_T5.2_[T11A]_[A12G] (ssRNA)
# RNA: B1 RNA with G28U, C41G
# B6: Id_ii_S2_P5E.3_K5.2_C5.2_[C-2T]_[T-1G]_H5.2_A5.1_F5.1_T5.2_[A12T] (ssRNA)
# RNA: B1 RNA with G28U, C29G, A40U, C41U
# B7: Id_ii_S2_P5E.3_K5.2_C5.2_[C-2G]_[T-1C]_H5.2_A5.1_F5.1_T5.2_[A12C] (ssRNA)
# RNA: B1 RNA with A40U
# B8: Id_ii_S2_P5E.3_K5.2_C5.2_[C-2T]_H5.2_A5.1_F5.1_T5.2_[T11A]_[A12T] (ssRNA)
# RNA: B1 RNA with G28U, C29U, C41U
# B9: Id_ii_S2_P5E.3_K5.2_C5.2_[C-2T]_H5.2_A5.1_F5.1_T5.2_[T11C]_[A12C] (ssRNA)
# RNA: B1 RNA with G28U, C29U, A40C
# B10: Id_ii_S2_P5E.3_K5.2_C5.2_[C-2G]_[T-1C]_H5.2_A5.1_F5.1_T5.2_[T11A]_[A12T] (ssRNA)
# RNA: B1 RNA with C41U
# B11: Id_ii_S2_P5E.3_K5.2_C5.2_[C-2T]_[T-1A]_H5.2_A5.1_F5.1_T5.2_[T11G]_[A12C] (ssRNA)
# RNA: B1 RNA with G28U, C29A, A40G
# B12: Id_ii_S2_P5E.3_K5.2_C5.2_[C-2T]_[T-1A]_H5.2_A5.1_F5.1_T5.2_[T11C] (ssRNA)
# RNA: B1 RNA with G28U, C29A, A40C, C41A
# B13: Id_ii_S2_P5E.3_K5.2_C5.2_[C-2A]_[T-1C]_H5.2_A5.1_F5.1_T5.2_[T11A]_[A12T] (ssRNA)
# RNA: B1 RNA with G28A, C41U
# B14: Id_ii_S2_P5E.3_K5.2_C5.2_[C-2G]_H5.2_A5.1_F5.1_T5.2_[A12C] (ssRNA)
# RNA: B1 RNA with C29U, A40U
# B15: Id_ii_S2_P5E.3_K5.2_C5.2_[C-2T]_H5.2_A5.1_F5.1_T5.2_[A12C] (ssRNA)
# RNA: B1 RNA with G28U, C29U, A40U
# B16: Id_ii_S2_P5E.3_K5.2_C5.2_[C-2T]_[T-1C]_H5.2_A5.1_F5.1_T5.2_[T11C]_[A12G] (ssRNA)
# RNA: B1 RNA with G28U, A40C, C41G
# B17: Id_ii_S2_P5E.3_K5.2_C5.2_[C-2T]_[T-1A]_H5.2_A5.1_F5.1_T5.2_[A12T] (ssRNA)
# RNA: B1 RNA with G28U, C29A, A40U, C41U
# B18: Id_ii_S2_P5E.3_K5.2_C5.2_[C-2G]_H5.2_A5.1_F5.1_T5.2_[T11A] (ssRNA)
# RNA: B1 RNA with C29U, C41A
# B19: Id_ii_S2_P5E.3_K5.2_C5.2_[C-2A]_[T-1A]_H5.2_A5.1_F5.1_T5.2_[T11C]_[A12G] (ssRNA)
# RNA: B1 RNA with G28A, C29A, A40C, C41G
# B20: Id_ii_S2_P5E.3_K5.2_C5.2_[C-2T]_[T-1C]_H5.2_A5.1_F5.1_T5.2_[T11C]_[A12T] (ssRNA)
# RNA: B1 RNA with G28U, A40C, C41U
# B21: Id_ii_S2_P5E.3_K5.2_C5.2_[C-2T]_[T-1C]_H5.2_A5.1_F5.1_T5.2_[A12T] (ssRNA)
# RNA: B1 RNA with G28U, A40U, C41U
# B22: Id_ii_S2_P5E.3_K5.2_C5.2_[C-2T]_H5.2_A5.1_F5.1_T5.2_[A12T] (ssRNA)
# RNA: B1 RNA with G28U, C29U, A40U, C41U
# B23: Id_ii_S2_P5E.3_K5.2_C5.2_[C-2T]_[T-1G]_H5.2_A5.1_F5.1_T5.2_[T11A]_[A12T] (ssRNA)
# RNA: B1 RNA with G28U, C29G, C41U
# B24: Id_ii_S2_P5E.3_K5.2_C5.2_[C-2A]_[T-1C]_H5.2_A5.1_F5.1_T5.2_[T11C] (ssRNA)
# RNA: B1 RNA with G28A, A40C, C41A
# B25: Id_ii_S2_P5E.3_K5.2_C5.2_[C-2A]_[T-1C]_H5.2_A5.1_F5.1_T5.2_[T11C]_[A12T] (ssRNA)
# RNA: B1 RNA with G28A, A40C, C41U
# B26: Id_ii_S2_P5E.3_K5.2_C5.2_[C-2G]_H5.2_A5.1_F5.1_T5.2_[T11C]_[A12T] (ssRNA)
# RNA: B1 RNA with C29U, A40C, C41U
# B27: Id_ii_S2_P5E.3_K5.2_C5.2_[C-2T]_[T-1G]_H5.2_A5.1_F5.1_T5.2_[A12C] (ssRNA)
# RNA: B1 RNA with G28U, C29G, A40U
# Molecular target: T1, PUF4 RNA-binding domain
# Assay: Mg; RNA-MaP; 20 mM Na-HEPES pH 7.4, 30 mM KOAc, 0.75 mM MgCl2, 0.1% Tween-20, 5% glycerol, 0.1 mg/mL BSA, 2 mM DTT; 25 C; 0.0125-409.6 nM protein
# Details: tags: N-His6-TEV cleaved; C-SNAP kept, Cy3B-labelled; label: tethered on chip by stalled RNA polymerase
row,Binder,Kd [nM]
1,UCUCUUUGUAUUCCUAUCUCUU (ssRNA) [Ib_S1_P5E.1_K5.1_C5.1_H5.1_A5.1_[A7C]_F5.1_[T8C]_T5.1],17.5
2,UCUCUUUGUAUUCGUAUCUCUU (ssRNA) [Ib_S1_P5E.1_K5.1_C5.1_H5.1_A5.1_[A7C]_F5.1_[T8G]_T5.1],19.1
3,B1,381
4,B2,149
5,B3,174
6,B4,10.7
7,B5,> 2300
8,B6,0.297
9,B7,455
10,B8,374
11,B9,66.4
12,B10,95.1
13,B11,13.9
14,B12,14.5
15,B13,207
16,B14,16
17,B15,156
18,B16,419
19,B17,19.2
20,B18,21.3
21,B19,> 2300
22,B20,82.2
23,B21,80.1
24,B22,130
25,B23,0.37
26,B24,162
27,B25,98.6
28,B26,27.5
29,B27,0.994
